The data set concerns O=[N+]([O-])c1ccc(O[C@@H]2O[C@H](CO)[C@@H](O[C@@H]3O[C@H](CO)[C@@H](O)[C@H](O)[C@H]3O)[C@H](O)[C@H]2O)cc1. The data set can be described thus: purified protein. The following applies: 100 mM MES pH 6.0, 50 °C, 10 min.

For orientation: Km means the substrate concentration at which the rate is half of its maximum. A word on the kcat: it is the maximal rate divided by the concentration of active sites. As a reminder, the kcat/Km is the second-order rate constant that governs catalysis at low substrate concentration.

With p4818Cel5_2A (uncultured bacterium), the Km was 1200 ± 100 µM, the kcat came out at 1.63 ± 0.0583 s⁻¹ and the kcat/Km came to 1350 M⁻¹ s⁻¹.
